From patent US20200079868A1 (UNIVERSITY OF SOUTHERN CALIFORNIA, published 2020)

T1: CD20 (B-lymphocyte antigen CD20) on CD20+ human lymphoma cells (Raji, SU-DHL-7) (human, UniProt P11836 1-297)
T1 sequence (looked up): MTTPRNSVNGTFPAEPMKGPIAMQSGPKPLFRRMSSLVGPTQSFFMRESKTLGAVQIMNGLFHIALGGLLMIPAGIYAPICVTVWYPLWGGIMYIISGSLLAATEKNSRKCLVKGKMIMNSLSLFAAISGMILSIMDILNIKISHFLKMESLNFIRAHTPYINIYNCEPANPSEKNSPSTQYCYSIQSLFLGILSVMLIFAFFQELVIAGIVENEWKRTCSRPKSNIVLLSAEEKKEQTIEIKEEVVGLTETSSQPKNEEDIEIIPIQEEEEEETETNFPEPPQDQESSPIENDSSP

B1: scFv A192 (anti-CD20 scFv-G(VPGAG)192Y fusion) (scFv)
scFv: QVQLQQPGAELVKPGASVKMSCKASGYTFTSYNMHWVKQTPGRGLEWIGAIYPGNGDTSYNQKFKGKATLTADKSSSTAYMQLSSLTSEDSAVYYCARSTYYGGDWYFNVWGAGTTVTVSAGGGGSGGGGSGGGGSQIVLSQSPAILSASPGEKVTMTCRASSSVSYIHWFQQKPGSSPKPWIYATSNLASGVPVRFSGSGSGTSYSLTISRVEAEDAATYYCQQWTSNPPTFGGGTKLEIKRTGVPGAGVPGAGVPGAGVPGAGVPGAGVPGAGVPGAGVPGAGVPGAGVPGAGVPGAGVPGAGVPGAGVPGAGVPGAGVPGAGVPGAGVPGAGVPGAGVPGAGVPGAGVPGAGVPGAGVPGAGVPGAGVPGAGVPGAGVPGAGVPGAGVPGAGVPGAGVPGAGVPGAGVPGAGVPGAGVPGAGVPGAGVPGAGVPGAGVPGAGVPGAGVPGAGVPGAGVPGAGVPGAGVPGAGVPGAGVPGAGVPGAGVPGAGVPGAGVPGAGVPGAGVPGAGVPGAGVPGAGVPGAGVPGAGVPGAGVPGAGVPGAGVPGAGVPGAGVPGAGVPGAGVPGAGVPGAGVPGAGVPGAGVPGAGVPGAGVPGAGVPGAGVPGAGVPGAGVPGAGVPGAGVPGAGVPGAGVPGAGVPGAGVPGAGVPGAGVPGAGVPGAGVPGAGVPGAGVPGAGVPGAGVPGAGVPGAGVPGAGVPGAGVPGAGVPGAGVPGAGVPGAGVPGAGVPGAGVPGAGVPGAGVPGAGVPGAGVPGAGVPGAGVPGAGVPGAGVPGAGVPGAGVPGAGVPGAGVPGAGVPGAGVPGAGVPGAGVPGAGVPGAGVPGAGVPGAGVPGAGVPGAGVPGAGVPGAGVPGAGVPGAGVPGAGVPGAGVPGAGVPGAGVPGAGVPGAGVPGAGVPGAGVPGAGVPGAGVPGAGVPGAGVPGAGVPGAGVPGAGVPGAGVPGAGVPGAGVPGAGVPGAGVPGAGVPGAGVPGAGVPGAGVPGAGVPGAGVPGAGVPGAGVPGAGVPGAGVPGAGVPGAGVPGAGVPGAGVPGAGVPGAGVPGAGVPGAGVPGAGVPGAGVPGAGVPGAGVPGAGVPGAGVPGAGVPGAGVPGAGVPGAGVPGAGVPGAGVPGAGVPGAGVPGAGVPGAGVPGAGVPGAGVPGAGVPGAGVPGAGVPGAGVPGAGVPGAGVPGAGVPGAGVPGAGVPGAGVPGAGY
modifications: rhodamine (RHD) labeled in the confocal binding assays; site of the label not stated
B2: Rituximab (antibody, V domains shown)
VH: QVQLQQPGAELVKPGASVKMSCKASGYTFTSYNMHWVKQTPGRGLEWIGAIYPGNGDTSYNQKFKGKATLTADKSSSTAYMQLSSLTSEDSAVYYCARSTYYGGDWYFNVWGAGTTVTVSA
VL: QIVLSQSPAILSASPGEKVTMTCRASSSVSYIHWFQQKPGSSPKPWIYATSNLASGVPVRFSGSGSGTSYSLTISRVEAEDAATYYCQQWTSNPPTFGGGTKLEIK

Molecular target: T1, CD20 (B-lymphocyte antigen CD20) on …
Assay: cell-based or functional assay

Binder	IC50, cell viability (MTS/PMS), Raji cells [µM]	IC50, cell viability (MTS/PMS), SU-DHL-7 cells [µM]	IC50, cell viability, SU-DHL-7 cells (figure legend; differs from the text) [µM]
B1	32	41	4
B2		4	
